Test [1] deals with T1, HLA-B*08:01 (human (endogenous in the Steinlin EBV …)).
Test [2] has as its target HLA-C*07:01 purified from the Steinlin EBV transformed homozygous cell line (human (endogenous in the Steinlin EBV …)).
Test [3] has as its target T1, HLA-B*08:01. This is another data set of the same source.

Like-named read-outs stand apart in the source and are kept apart here.

As to SRGTSPARM [SARS-CoV-2 nucleocapsid peptide SRGTSPARM (R203/G204)], the IC50 (in the test with HLA-B*08:01 [1]; in test [2]) was above 50 µM throughout.

Consider IRSSYIRVL [peptide 3424.0028 (IRSSYIRVL, DNA replication licensing factor MCM5 289-297)], for which 301 nM corresponded to half-maximal inhibition with HLA-B*08:01 [3] (IC50).

By IC50 is commonly meant the concentration needed to halve the response being measured. A low value points to inhibition by little substance.

The values above are taken from publication PMC8439434 (2021).
